From doi:10.1101/2023.04.26.538363 (bioRxiv, 2023) come the findings set out here.

Positions count from the first letter of the chain named. Names may count otherwise.

The target of data set [1] is T1, Escherichia coli inclusion body-associated protein B (E. coli, UniProt P0C058 1-142).
T1 sequence: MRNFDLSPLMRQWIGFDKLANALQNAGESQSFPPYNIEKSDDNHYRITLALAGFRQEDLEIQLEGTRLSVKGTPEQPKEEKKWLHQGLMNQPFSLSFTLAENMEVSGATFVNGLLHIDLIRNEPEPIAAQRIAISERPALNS
Nature of the data set: sucrose density gradient centrifugation.

Data set [2] deals with the molecule itself. Nature of the data set: sucrose density gradient centrifugation.

B1: Escherichia coli inclusion body-associated protein A, wild type (natural protein)
chain: MRNFDLSPLYRSAIGFDRLFNHLENNQSQSNGGYPPYNVELVDENHYRIAIAVAGFAESELEITAQDNLLVVKGAHADEQKERTYLYQGIAERNFERKFQLAENIHVRGANLVNGLLYIDLERVIPEAKKPRRIEIN
For B1, the binding result in data set [1] and in data set [2] was “binds” each time.

B2: Escherichia coli IbpA R93A mutant (natural protein)
chain: B1 chain with R93A
In the case of B2, the binding result in data set [1] and in data set [2] was “binds” each time.
